# Source: the supplement of paper PMC9732359
# ± gives the uncertainty stated by the source.
# Test: protein stability index of a GFP-peptide fusion (yeast GPS) (PSI 1-4); higher = more stable; sorted into four equal gates, so the index is relative within each strain
# Outline: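 The protein stability index of a peptide was calculated by multiplying its read frequency in each gate by that gate's number and adding the products. The peptides were tiled 17-residue stretches of yeast proteins, fused downstream of GFP on a Cherry-expressing plasmid and carried in yeast as a pooled library. Mid-log cultures in leucine-free medium were sorted into four equal gates by GFP/Cherry ratio, and each gate's plasmids were PCR-amplified and Illumina-sequenced.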
Sequence,protein stability index (doa10∆),protein stability index (pdr5∆),protein stability index (san1∆),protein stability index (ubr1∆)
PLITRHCYPRQLCQITC [RRP46],1.89 ± 0.054,2.02 ± 0.049,1.92 ± 0.095,2.11 ± 0.044
KWAGIKTRKFVFNPPKP [CYT1],3.04 ± 0.16,2.98 ± 0.24,3.05 ± 0.17,2.95 ± 0.15
HKVSSQSTNLNRSAKNS [YCS4],2.24 ± 0.054,2.41 ± 0.05,2.38 ± 0.079,2.32 ± 0.05
NVGTNTYRLGEWSKISV [POP1],1.97 ± 0.25,2.34 ± 0.12,2.69 ± 0.097,3.17 ± 0.12
GVVQMVTDNKTPEMNVT [TAF14],2.78 ± 0.16,2.67 ± 0.22,3.33 ± 0.092,–
YLIVAGVDPTGSHLFSI [PUP1],1.84 ± 0.081,2.24 ± 0.085,1.94 ± 0.14,2.09 ± 0.068
GYDKSGAHLLEFQPSGN [PRE5],2.68 ± 0.25,3.22 ± 0.18,2.79 ± 0.21,–
FKAMEDVIAWKNVLANS [ITC1],–,2.95 ± 0.16,3.55 ± 0.078,3.49 ± 0.16
LAFDKLNVPVFQIVIEP [ARP7],2.12 ± 0.058,2.23 ± 0.061,1.8 ± 0.079,1.7 ± 0.056
VSISTSVKPHVVEPEHM [SIR4],2.54 ± 0.078,2.99 ± 0.089,2.53 ± 0.087,2.65 ± 0.052
ILLTSISRERDLFTHLW [SRP68],2.85 ± 0.13,2.71 ± 0.18,2.75 ± 0.1,2.73 ± 0.11
VRNFKEAAKLLVDSLAT [RPN7],2.23 ± 0.18,–,–,–
VLNGQKIVVVRAEALNI [RPL16B],2.47 ± 0.14,3.15 ± 0.14,3.16 ± 0.11,3.11 ± 0.11
KKIVDDTIMENPEPNKK [IRR1],2.14 ± 0.071,2.81 ± 0.054,2.53 ± 0.084,2.59 ± 0.078
KMENLMRLIKRVRAESL [YJL039C/NUP192],1.49 ± 0.083,1.19 ± 0.1,1.32 ± 0.23,1.12 ± 0.099
RNQVQTENVAQARIILN [YGR119C/NUP57],3 ± 0.1,2.9 ± 0.092,3.01 ± 0.05,2.78 ± 0.042
QQQIESNEEQRNLDSAT [SMC3],–,–,3.43 ± 0.091,–
DRFIELISDQLLEFFEL [YML103C/NUP188],2.56 ± 0.067,2.42 ± 0.053,2.4 ± 0.053,2.74 ± 0.049
KASTISRGAVSGQKAGL [RPL2A],2.46 ± 0.044,2.36 ± 0.055,2.67 ± 0.055,2.87 ± 0.046
KVVGPRGTLTKNLKHID [RPL9A],3.27 ± 0.072,2.98 ± 0.065,2.8 ± 0.086,2.35 ± 0.052
PRFLNKQERSKQERLKE [PRP28],1.91 ± 0.091,2.53 ± 0.13,3.34 ± 0.11,2.13 ± 0.089
GALDVEGLCIVAGSKCW [RRP45],2.83 ± 0.12,2.96 ± 0.11,2.87 ± 0.077,2.9 ± 0.13
FLYEILSSLKSFAIYSS [SRB8],1.24 ± 0.053,1.16 ± 0.038,1.34 ± 0.099,1.14 ± 0.047
KDFLKAVDKVISGYKKF [RPT1],3.21 ± 0.074,3.38 ± 0.09,3.12 ± 0.092,3.33 ± 0.051
LDTQLNDLRVSLNEKNA [SMC1],3.03 ± 0.11,3.13 ± 0.082,3.41 ± 0.064,3.14 ± 0.09
LYVVGLFDTYHASKAIG [RRP6],1.91 ± 0.045,2.38 ± 0.043,1.88 ± 0.069,2.49 ± 0.035
EDGTIESYNQNDWKLET [SIN4],3.29 ± 0.22,3.02 ± 0.2,3.22 ± 0.12,2.98 ± 0.11

Sequence,protein stability index (doa10∆),protein stability index (pdr5∆),protein stability index (san1∆),protein stability index (ubr1∆)
LSLTTVPCDRIEKSRLF [SNF6],2.51 ± 0.065,2.64 ± 0.076,2.66 ± 0.053,2.29 ± 0.044
LHKRQQFSESTHNDIDS [YJL039C/NUP192],2.9 ± 0.081,3.03 ± 0.091,2.78 ± 0.051,3.03 ± 0.05
EEEKELTEEELKTRYVG [RPN11],3.68 ± 0.2,3.44 ± 0.12,3.4 ± 0.067,3.5 ± 0.14
LLERTREIHNEAESQLR [FAS2],2.97 ± 0.12,2 ± 0.087,2.21 ± 0.22,2.54 ± 0.08
FMHDPSVFYNIANMVLP [SIR2],2 ± 0.05,2.03 ± 0.04,1.85 ± 0.054,1.7 ± 0.036
VEDGNILVFQVSMKANK [RPL25],2.58 ± 0.043,2.46 ± 0.047,2.5 ± 0.047,2.69 ± 0.037
TGTARLNSMPNNVNEYS [YJL039C/NUP192],2.82 ± 0.1,2.74 ± 0.085,3.01 ± 0.052,2.89 ± 0.056
QGRRLGESIMSEEPTDF [MCD1],3.21 ± 0.11,3.36 ± 0.13,3.32 ± 0.069,3.23 ± 0.092
RCYQPFELFDNKTAHLS [SNU114],2.27 ± 0.1,2.71 ± 0.08,2.53 ± 0.061,2.24 ± 0.041
GSKSDGSAATSGFEFSK [RPN1],2.7 ± 0.14,3.09 ± 0.14,2.72 ± 0.14,3.1 ± 0.12
NVKELWTEKKGKNVINR [SMD2],3.46 ± 0.22,–,3.54 ± 0.18,3.6 ± 0.11
TRNPDAPKGSTDPKELY [RPC40],3.11 ± 0.23,3.63 ± 0.29,–,3.48 ± 0.16
LYGPPGTGKTMLVKAVA [RPT3],–,1.17 ± 0.11,1.15 ± 0.21,1.37 ± 0.14
AVPAATPANTNNSTSNA [SWI1],2.52 ± 0.06,2.99 ± 0.053,2.65 ± 0.053,2.96 ± 0.04
DEAEGRFEVINNETEQL [SMC1],2.07 ± 0.072,2.56 ± 0.076,3.04 ± 0.14,2.82 ± 0.1
YGTRPLVLPPVVTSSVA [SNF2],2.04 ± 0.086,2.06 ± 0.071,1.76 ± 0.12,1.94 ± 0.051
ACSSSGRETILSNFNAD [SIR3],2.39 ± 0.037,2.16 ± 0.04,2.44 ± 0.045,2.75 ± 0.042
FILADAGLEITSDNLLT [RPP1B],2.55 ± 0.052,2.77 ± 0.054,2.65 ± 0.076,2.73 ± 0.049
ESQQQDESLKDEATVPN [SWI3],3.19 ± 0.079,3.36 ± 0.09,3.31 ± 0.15,3.21 ± 0.098
SSHAKGIVLEKLGIESK [RPS23A],3.02 ± 0.15,2.88 ± 0.13,2.67 ± 0.095,3.17 ± 0.17
NLINLSIGASIADLASL [YCS4],2.45 ± 0.055,2.44 ± 0.052,2.39 ± 0.071,2.69 ± 0.042
PGRKYTTLGKLSTSVGW [RPL16A],2.92 ± 0.089,2.78 ± 0.092,2.2 ± 0.23,2.47 ± 0.091
TQRIMTNVIAFAFWNLL [YLR018C/POM34],1.81 ± 0.069,2.13 ± 0.058,1.74 ± 0.16,1.58 ± 0.027
IKQQQQQQQQQNGQQPP [YML103C/NUP188],2.31 ± 0.036,2.63 ± 0.039,2.48 ± 0.04,2.39 ± 0.034
PIPFEFQAVIQKSINHP [SNF2],2.67 ± 0.11,2.61 ± 0.081,2.37 ± 0.077,2.86 ± 0.057
SECIVSIKSKVVDHHVE [RRP42],3.04 ± 0.066,3.08 ± 0.08,2.71 ± 0.14,3.04 ± 0.067
TGSDREVQRILIELLTQ [RPT3],3.02 ± 0.14,–,–,3.5 ± 0.23
